These results are taken from patent US20260234247A1 (published 2026).

One test concerns the target cynomolgus LILRB2 (cynomolgus). The test can be described thus: Octet off-rate ranking.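 Further: antibody dissociation rate constants against cynomolgus LILRB2 plus human LILRB1, LILRB2, LILRA1 and LILRA2, measured on an Octet instrument to rank binding.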
For test [1], the target named is T1, human LILRB1 expressed on CHOK1 cells (CHOK1-hLILRB1) (human, UniProt Q8NHL6 24-650).
T1 construct: whole, on cells; also called CHOK1-LILRB1
The test can be described thus: FACS binding to CHOK1-hLILRB1 cells.

Test [2] deals with T1, human LILRB1 expressed on CHOK1 cells …. The test can be described thus: cell based RBA, flow cytometry: blocking of HLA-G binding to CHOK1-hLILRB1 cells. (Flow cytometry measures light scatter and fluorescence of single cells or particles in a stream.)
The target of test [3] is T2, human LILRB2 expressed on CHOK1 cells (CHOK1-hLILRB2) (human, UniProt Q8N423 22-597).
T2 construct: whole, on cells; also called CHOK1-LILRB2
In words: FACS binding to CHOK1-hLILRB2 cells.

For the next test, the target named is T3, human LILRB1 (human, UniProt Q8NHL6 24-458, limits assumed).
T3 construct: also called hLILRB1
The test can be described thus: Octet off-rate ranking.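 Further: antibody dissociation rate constants against cynomolgus LILRB2 plus human LILRB1, LILRB2, LILRA1 and LILRA2, measured on an Octet instrument to rank binding.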 Background: In BLI a coated tip is dipped into the sample, and binding shifts an interference pattern.

In the next test the target is T4, human LILRB2 (human, UniProt Q8N423 22-460, limits assumed).
T4 construct: also called hLILRB2
In words: Octet off-rate ranking.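 Further: antibody dissociation rate constants against cynomolgus LILRB2 plus human LILRB1, LILRB2, LILRA1 and LILRA2, measured on an Octet instrument to rank binding.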

In test [4] the target is T2, human LILRB2 expressed on CHOK1 cells …. The test can be described thus: cell based RBA, flow cytometry: blocking of HLA-G binding to CHOK1-hLILRB2 cells.

T1 sequence (Q8NHL6 24-650): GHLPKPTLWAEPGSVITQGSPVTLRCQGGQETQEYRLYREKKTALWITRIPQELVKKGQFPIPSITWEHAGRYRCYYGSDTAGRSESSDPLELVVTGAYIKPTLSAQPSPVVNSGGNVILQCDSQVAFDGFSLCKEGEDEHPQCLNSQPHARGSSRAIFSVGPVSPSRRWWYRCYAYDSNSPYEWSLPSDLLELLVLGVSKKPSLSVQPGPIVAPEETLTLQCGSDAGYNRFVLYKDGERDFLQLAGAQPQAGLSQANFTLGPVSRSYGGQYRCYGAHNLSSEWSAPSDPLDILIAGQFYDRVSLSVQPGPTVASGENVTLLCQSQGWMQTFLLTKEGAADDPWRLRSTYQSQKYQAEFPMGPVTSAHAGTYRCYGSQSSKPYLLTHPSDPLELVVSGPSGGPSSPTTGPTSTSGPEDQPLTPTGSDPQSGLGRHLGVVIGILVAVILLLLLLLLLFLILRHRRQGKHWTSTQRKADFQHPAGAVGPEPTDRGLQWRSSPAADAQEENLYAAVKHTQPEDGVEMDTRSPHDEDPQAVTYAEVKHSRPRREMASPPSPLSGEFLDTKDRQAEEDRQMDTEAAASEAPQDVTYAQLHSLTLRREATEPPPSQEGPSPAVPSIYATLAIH
T2 sequence (Q8N423 22-597): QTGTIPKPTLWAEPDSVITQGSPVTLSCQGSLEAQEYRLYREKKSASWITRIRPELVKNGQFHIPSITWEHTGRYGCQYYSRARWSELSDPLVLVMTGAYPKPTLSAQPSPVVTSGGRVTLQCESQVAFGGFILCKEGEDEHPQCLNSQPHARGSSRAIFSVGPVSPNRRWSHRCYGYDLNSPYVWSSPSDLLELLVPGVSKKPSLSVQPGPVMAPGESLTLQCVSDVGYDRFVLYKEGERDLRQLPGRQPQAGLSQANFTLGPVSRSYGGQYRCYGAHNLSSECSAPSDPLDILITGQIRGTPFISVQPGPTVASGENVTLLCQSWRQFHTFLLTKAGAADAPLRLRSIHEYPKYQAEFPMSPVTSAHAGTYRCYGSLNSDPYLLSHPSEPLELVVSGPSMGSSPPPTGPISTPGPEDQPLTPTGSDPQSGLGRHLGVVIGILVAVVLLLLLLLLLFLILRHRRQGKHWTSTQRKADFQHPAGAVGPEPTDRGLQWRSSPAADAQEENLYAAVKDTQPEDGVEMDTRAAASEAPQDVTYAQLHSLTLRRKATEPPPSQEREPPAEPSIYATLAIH
Chain of cynomolgus LILRB2 (cynomolgus) (chain, as listed by the source): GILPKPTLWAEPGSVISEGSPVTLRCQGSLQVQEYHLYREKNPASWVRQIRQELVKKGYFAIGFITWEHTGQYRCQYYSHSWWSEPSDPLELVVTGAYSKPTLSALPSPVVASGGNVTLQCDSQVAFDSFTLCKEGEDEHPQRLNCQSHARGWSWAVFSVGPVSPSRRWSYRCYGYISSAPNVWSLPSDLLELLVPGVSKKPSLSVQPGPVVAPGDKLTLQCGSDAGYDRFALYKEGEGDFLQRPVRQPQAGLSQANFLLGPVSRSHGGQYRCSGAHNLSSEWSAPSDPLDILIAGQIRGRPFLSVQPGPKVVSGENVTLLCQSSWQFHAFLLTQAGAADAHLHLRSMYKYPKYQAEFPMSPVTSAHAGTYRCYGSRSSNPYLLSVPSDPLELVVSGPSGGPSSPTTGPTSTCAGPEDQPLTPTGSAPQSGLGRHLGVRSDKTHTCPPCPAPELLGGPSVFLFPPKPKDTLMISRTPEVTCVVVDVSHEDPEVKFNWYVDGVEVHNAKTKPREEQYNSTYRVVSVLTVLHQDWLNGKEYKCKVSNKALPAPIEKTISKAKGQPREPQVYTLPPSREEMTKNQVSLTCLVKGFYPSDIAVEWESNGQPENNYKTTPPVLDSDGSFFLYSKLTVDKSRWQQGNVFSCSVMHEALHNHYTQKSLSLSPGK
T3 sequence (Q8NHL6 24-458 limits assumed): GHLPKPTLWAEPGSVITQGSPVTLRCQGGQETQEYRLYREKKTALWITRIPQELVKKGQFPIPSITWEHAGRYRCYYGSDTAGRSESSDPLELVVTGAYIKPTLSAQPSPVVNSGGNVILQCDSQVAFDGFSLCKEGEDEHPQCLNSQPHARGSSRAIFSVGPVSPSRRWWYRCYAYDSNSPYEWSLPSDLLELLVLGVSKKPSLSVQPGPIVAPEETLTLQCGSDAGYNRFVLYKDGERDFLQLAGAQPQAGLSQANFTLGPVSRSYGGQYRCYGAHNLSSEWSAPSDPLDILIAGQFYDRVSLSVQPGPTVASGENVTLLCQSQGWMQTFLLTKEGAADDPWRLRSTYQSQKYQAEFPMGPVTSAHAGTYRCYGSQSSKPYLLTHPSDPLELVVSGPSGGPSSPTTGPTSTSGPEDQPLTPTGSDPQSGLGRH
T4 sequence (Q8N423 22-460 limits assumed): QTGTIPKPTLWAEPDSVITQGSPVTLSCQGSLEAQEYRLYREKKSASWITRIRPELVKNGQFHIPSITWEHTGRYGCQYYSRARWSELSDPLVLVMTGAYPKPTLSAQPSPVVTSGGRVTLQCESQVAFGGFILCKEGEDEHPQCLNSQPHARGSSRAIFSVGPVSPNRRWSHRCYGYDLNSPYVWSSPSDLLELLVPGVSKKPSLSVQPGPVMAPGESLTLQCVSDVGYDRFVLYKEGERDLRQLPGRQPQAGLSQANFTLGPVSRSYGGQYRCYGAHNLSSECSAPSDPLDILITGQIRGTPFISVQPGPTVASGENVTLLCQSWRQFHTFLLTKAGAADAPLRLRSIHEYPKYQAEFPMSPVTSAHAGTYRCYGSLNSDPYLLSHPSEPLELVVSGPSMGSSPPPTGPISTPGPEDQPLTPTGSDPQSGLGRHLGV
Source text for cynomolgus LILRB2: Binding affinity of anti-LILRB1 and anti-LILRB2 antibodies against human LILRB1, LILRB2, LILRA1, LILRA2 and cynomolgus LILRB2 was ranked by measuring dissociation rate constant (Kdis) using the Octet system.

B1: LK-RB2-30 (antibody, human IgG4 S228P, kappa, V domains shown)
VH: EVQLVESGGGLVQPGGSLKLSCAASGFTFNTDGMSWVRQTPDKRLELVAIINSNGGSTYYPDSVKGRFTISRDNAKNTLYLQMSSLKSEDTAMYYCAREGSYGSWFAYWGQGTLVTVSA
VL: DIQMTQSPASLSVSVGETVTITCRASENINNNLAWYHQKQGKSPQLLVYAATNLADGVPSRFSGSGSGTQYSLKINSLQSEDFGSYYCQHFWGTPFTFGGGTKLEIKR
As a reminder, the koff is the first-order rate constant of dissociation. A high value points to fast dissociation. B1 registered a koff with cynomolgus LILRB2 of 2.01e-05 s⁻¹.

B2: LK-RB2-16 (antibody, human IgG4 S228P, kappa, V domains shown)
VH: QIQLVQSGPELKKPGETVKISCKASGYTFTTYGMGWVKQAPEKGLKWMGWINTNSGAPTYGDDFKGRFAFSLETSASTAYLQINNLKNEDTATYFCAHYGRPWFAYWGQGTLVTVSA
VL: DIQMTQSPASLSASVGETVTITCRASENIYSYLAWYHQKQGESPQLLVYNAKTLAEGVPSRFSGSGSGTQFSLKINSLQPEDFGSYYCQHHYNIPLTFGAGTKLELKR
As a reminder, the EC50 is the concentration that produces a half-maximal response. Read a low EC50 as higher potency in that assay. For B2, the half-maximal effective concentration (EC50) amounted to 4.3 nM in test [1], 13.4 nM in test [2] and 6.01 nM in test [3]. For the same molecule, in test [2], the “Top Inhibition” value came to 35.3%.

B3: 3C1 (antibody, human IgG4, kappa, V domains shown)
VH: EVQLVESGGGLVQPGGSLRLSCAASGFTFSDYDMHWVRQATGKGLEWVATIDTAGDTYYPDSVRGRFTISRENAKNSLSLQMNSLRAGDTAVYFCARDVPGTGFDHWGQGTLVTVSS
VL: SSELTQDPAVSVALGQTVRITCQGDSLRSYYESWYQQKPGQAPVLVIYGKNNRPSGIPDRFSGSISGNTASLTITGTQAEDEADYYCNSRDNSGDHWVFGGGTRLTVLG
B3 showed a concentration for a half-maximal effect (EC50) in test [1] of 0.62 nM. For the same molecule, in test [2], the EC50 worked out at 0.94 nM and the “Top Inhibition” value is 79.6%. Besides, the binding result in test [3] is on record as “no binding”.

B4: LK-RB2-27 (antibody, human IgG4 S228P, kappa, V domains shown)
VH: DVKLVESGGGLVKPGGSLKLSCAASGFTFSSYSMSWVRQTPEKRLEWVATISTGGSYTYYPDSVKGRFTISRDNAKNTLYLQMSSLKSEDTAMFYCTRGSMDYWGQGTSVTVSS
VL: DILMTQSPSSMSVSLGDTVSITCHASQDISSNIGWLQQKPGNSFKGLIYHGTNLEDGVPSRFSGSGSGADYSLTISSLESEDFADYYCVQYAQFPYTFGGGTKLEIKR
Regarding B4, in the test with cynomolgus LILRB2, the koff worked out at 0.00109 s⁻¹.

B5: LK-RB2-34 (antibody, human IgG4 S228P, kappa, V domains shown)
VH: DVKVVESGGGLVKPGGSLKLSCAASGFTFSSYSMSWVRQTPEKRLEWVATISTGSSYTYYSDSVKGRFTISRDNAKNTLYLQMSSLKSEDTAMFYCTRGSMDYWGQGTSVTVSS
VL: DILMTQSPSSMSVSLGDTVSITCHASQDISSNIGWLQQKPGNSFKGLIYHGINLEDGVPSRFSGSGSGADYSLTISSLESEDFADYYCVQYAQFPYTFGGGTKLEIKR
As for B5, the koff with cynomolgus LILRB2 turned out to be 0.000673 s⁻¹.

B6: LK-RB2-28 (antibody, human IgG4 S228P, kappa, V domains shown)
VH: DVKLVESGGGLVKPGGSLKLSCAASGFTFSSYSMSWVRQTPEKRLEWVATISTGGSYTYYPDSMKGRFTISRDNAKNTLYLQMSSLKSEDTAMFYCTRGSMDYWGQGTSVTVSS
VL: DILMTQSPSSMSVSLGDTVSIACHASQDISSNIGWLQQKPGNSFKGLIYHGTNLEDGVPSRFSGSGSGADYSLTISSLESEDFADYYCVQYAQFPYTFGGGTKLEIKR
In the test with cynomolgus LILRB2, B6 came in with an off-rate (koff) of 0.00114 s⁻¹. Compared with the last molecule, the koff is about 1.7-fold higher.

B7: LK-RB2-32 (antibody, human IgG4 S228P, kappa, V domains shown)
VH: DVQLQESGPGLVKPSQSLSLTCSVTGYSITSGYYWNWIRQFPGNKLEWMGYISFDGSNHYNPSLRNRISITRDTFKNQFFLKLNSVTTEDTATFYCTRRDYNWFAYWGQGTLVTVSA
VL: DIVLTQSPVTLSVTPGDSVSLSCRASQNINKNLHWYQQRSHESPRLLIKYVSQSISGIPSRFSGSGSGTDFTLSINSVETEDFGMYFCQQSNSWPLTFGAGTKLELRR
As to B7, the off-rate constant (koff) with human LILRB1 stood at 0.00186 s⁻¹; with cynomolgus LILRB2, 0.00123 s⁻¹; with human LILRB2 it was 0.00291 s⁻¹.

B8: LK-RB2-25 (antibody, human IgG4 S228P, kappa, V domains shown)
VH: QVQLKESGPGLVAPSQSLSITCTVSGFSLTSYGVHWVRQPPGKGLEWLGVIWAGGSTKYNSALMSRLSINKDNSKSQVFLKMNSLQTDDTAMYYCARDQMVRSAMDYWGQGTSVTVSS
VL: DIQMIQSPSSMFASLGDRVSLSCRASQGIRGNLDWYQQKPGGTIKLLIYSTSNLNSAVPSRFSGSGSGSDYSLTISNLESEDFADYYCLQRNASPYTFGGGTKLEIKR
Consider B8, for which the off-rate (koff) with human LILRB1 was found to be 0.000609 s⁻¹; in the test with cynomolgus LILRB2 it was 0.000424 s⁻¹.

B9: LK-RB2-26 (antibody, human IgG4 S228P, kappa, V domains shown)
VH: QVQLKESGPGLVAPSQSLSITCTVSGFSLTSYGVHWVRQPPGKGLEWLGVIWAGGSTDYNAAFISRLNISKDISESQVFFRMNSLQTDDTAMYYCARDQMVRSAMDYWGQGTSVTVSS
VL: DIQMIQSPSSMFASLGDRVSLSCRASQGIRGNLDWYQQKPGGTIKLLIYSTSNLNSAVPSRFSGSGSGSDYSLTISNLESEDFADYYCLQRNASPYTFGGGTKLEIKR
Take B9: in the test with cynomolgus LILRB2, the koff was determined as 0.00184 s⁻¹.

B10: 15G8 (antibody, human IgG4 S228P, kappa, V domains shown)
VH: DVQLQGSGPGLVKPSETLSLTCSVTGYSITSGYYWNWIRQFPGKKLEWMGYISYDGSNNYNPSLKNRITISRDTSKNQFSLKLNSVTAADTATYYCAHGYSYYYAMDAWGQGTSVTVSS
VL: DIQMTQSPSSLSASVGDRVTITCRTSQDISNYLNWYQQKPGKAVKLLISYTSRLHSGVPSRFSGSGSGTDYTLTISSLQPEDFATYYCQQGNTLPTFGQGTKLEIKR
On to B10, for which a half-maximal effect in test [1] (EC50) was put at 0.57 nM. Besides, in test [2], it took 0.69 nM to reach a half-maximal effect (EC50) and the “Top Inhibition” value is 82.5%. Further, in test [3], the binding result is listed as “no binding”.

B11: LK-RB2-29 (antibody, human IgG4 S228P, kappa, V domains shown)
VH: QVQLQQSGAELARPGASVKLSCKASGYTFTSYWMQWVKQRPGQGLEWIGAIYPGDGDTRYTQKFKGKATLTADKSSSTAYMQLSSLASEDSAVYYCARGYYGSSYADYFDYWGQGTTLTVSS
VL: DIQMTQSPASLSASVGETVTITCRASGNIHNYLAWYQQKQGKSPQLLVYNAKTLADGVPSRFSGSGSGTQYSLKINSLQPEDFGSYYCQHFWSTPPTFGGGTKLEIKR
In the case of B11, in the test with cynomolgus LILRB2, the koff worked out at 0.000215 s⁻¹.

B12: LK-RB2-31 (antibody, human IgG4 S228P, kappa, V domains shown)
VH: QVQLQQPGAELVKPGASMKLSCKASGYTFTTYYMYWVKQRPGLGLEWIGGINPSNGGTTFNEKFKNKATLTVDKSSSTAYMQLRSLTSEDSAVYYCTRWRFFDVWGAGTTVTVSS
VL: SIVMTQTPEFLLVSAGDRVTITCKASQSVNNDVAWFQQKPGQSPKLLIYYASNRYTGVPDRFTGSGYGTDFTFTISTVQAEDLAIYFCQQDYSSPPTFGGATKLEIKR
For B12, the dissociation rate constant (koff) with human LILRB1 came out at 0.00167 s⁻¹; in the test with cynomolgus LILRB2, 0.000291 s⁻¹.

B13: LK-RB2-44 (antibody, human IgG4 S228P, kappa, V domains shown)
VH: EVQLVESGGDLVKPGGSLKLSCAASGFTFSSYGMSWVRQTPDKRLEWVATISGGGTYTYYPDSVKGRFTISRDNAKNTLYLQMSSLKSEDTAMYYCASGAMDYWGQGTSVTVSS
VL: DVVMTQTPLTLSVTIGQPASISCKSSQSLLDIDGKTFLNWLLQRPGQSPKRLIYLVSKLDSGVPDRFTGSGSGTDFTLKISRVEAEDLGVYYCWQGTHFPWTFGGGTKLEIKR
In the case of B13, in the test with cynomolgus LILRB2, the dissociation rate constant (koff) was 0.000346 s⁻¹.

B14: LK-RB2-15 (antibody, human IgG4 S228P, kappa, V domains shown)
VH: QIQLVQSGPELKKPGETVKISCKASGYTFTTYGMSWVKQAPGKGLKWMGWINVYSGVPTYADDFKGRFAFSLEISASTAYLQINNLKDEDTATYFCARRKDYSGHCFDYWGQGTTLTVSS
VL: DIVLTQSPASLAVSLGQRATFSCRASESVDTYGISFMHWYQQKPGQPPKLLIYRASNLESGIPARFSGSGSRTDFTLTINPVETDDVATYYCQQSKKEPYTFGGGTKLEIKR
Turning to B14, the EC50 in test [1] came out at 31.4 nM; in test [2], 4.18 nM; in test [4], 0.162 nM; in test [3], 0.16 nM. In addition, the “Top Inhibition” value in test [2] is 70.8%; in test [4], 77.5%.

B15: LK-RB2-24 (antibody, human IgG4 S228P, kappa, V domains shown)
VH: QIQLVQSGPEVKKPGETVKISCKASGYTFTTYGMSWVKQAPGKGLKWMGWLNIYSGVPAYADDFKGRFAFSLESSASTAYLQINNLKNEDTATYFCARRENYDGYGMDYWGQGTSVTVSS
VL: DIVMTQSPATLSVTPGDRVSLSCRASQSISDYLHWYQQKSHESPRLLIKYASQSISGIPSRFSGSGSGSDFTLSINSVEPEDVGVYYCQNGHSFPYTFGGGTKLEIKR
In the case of B15, the 50% effective concentration (EC50) is 0.848 nM in test [1], 1.7 nM in test [2], 0.0956 nM in test [4] and 0.18 nM in test [3]. The figures for the “Top Inhibition” value in test [2] and in test [4] were 93.4% and 74.1%, respectively.

B16: LK-RB2-47 (antibody, human IgG4 S228P, kappa, V domains shown)
VH: QVQLKQSGPGLVQPSQSLSITCTVSGFSLISYGVHWVRQSPGKGLEWLGVIWSGGSTDYNAAFISRLSISKDNSKSQVFFKMNSLQADDTAIYYCARSFHYHGSTFDYWGQGTTLTVSS
VL: DIQMTQTTSSLSASLGDRVIISCRASQDINNYLNWYQQKPDGTVKLLIYFTSRLHSGVPSSFSGSGSGTDYSLTINNLEQEDIATYFCQQVNTLPYTFGGGTKLEIKR
With B16, the koff with cynomolgus LILRB2 worked out at 3.03e-05 s⁻¹.

B17: LK-RB2-42 (antibody, human IgG4 S228P, kappa, V domains shown)
VH: EFQLQQSGPELVKPGASVKISCKASGYSFTDYNMNWVKQSNGKSLDWIGIINPKYGTTAYNQKLRDKATLTVDQSSSTAYMQLNSLTSEDSAVYYCASLNWDEGFAYWGQGTLVTVSP
VL: DVLMTQTPLSLPVSLGDQASISCRSSQSIVHSNGNTYLEWYLQKPGQPPKLLIYKVSNRFSGVPERFSGSGSGTDFTLKINRVEAEDLGVYYCFQGSLVPPTFGGGTKLEIKR
B17 gave an off-rate constant (koff) in the test with cynomolgus LILRB2 of 0.000147 s⁻¹. Against the preceding molecule, the koff is about 4.9-fold higher.

B18: LK-RB2-41 (antibody, human IgG4 S228P, kappa, V domains shown)
VH: EVQLQLSGPELVKPGASVKMSCKASGYTFTDYNMHWVKQSHGKSLEWIGYINPNNGGTTYNQKFKGKATLTVNKSSSTAYMELRSLTSEDSAVYYCARAPYYGSSYLLAYWGQGTLVTVSA
VL: DIVMTQSHKFMSTSVGDRVSITCKASQDVSTAVAWYQQKPGQSPKLLIYSASYRYTGVPDRFTGSGSGTDFTFTISSVQAEDLAIYYCQQHYSIPWTFGGGTKLEIKR
B18: the koff with cynomolgus LILRB2 is 0.00119 s⁻¹; with human LILRB2, 6.33e-06 s⁻¹.
